Legend:
^HsCRM1 = ^HsCRM1 (Homo sapiens, UniProt O14980); experiment: Differential bleaching, competition titration of MBP-NES to FITC-PKI^NES and CRM1 with excess RanGTP; type: binding
HeLa cells = experiment: In vivo NES activity assay, EYFP2-SV40^NLS-NES reporter, spinning disk confocal microscope; type: cell-based; details: EYFP2-SV40^NLS-FMRP-1b^NES expressed in HeLa cells; 60X
Description: Figure 2. Structures of NESs with non-helical sequence patterns. (A–E) FMRP^NES (light orange), SMAD4^NES (salmon), HDAC^NES (slate), Pax^NES (pale cyan) and FMRP-1b^NES (deep teal) bound to the ^ScCRM1 groove. […] Average displacements of each Φ Cα in the eight NESs (including mDia2^NES, CDC7^NES, X11L2^NES in Figure 1) from the equivalent Φ Cα of PKI^NES(Ф0L) are 1.3 ± 0.6 (Φ4), 0.8 ± 0.5 (Φ3), 0.7 ± 0.4 (Φ2), 0.9 ± 0.3 (Φ1) and 1.8 ± 0.9 (Φ0) Å. DOI: http://dx.doi.org/10.7554/eLife.23961.012 Figure 2—figure supplement 1. Electron densities of the NES peptides. […] DOI: http://dx.doi.org/10.7554/eLife.23961.013 [drawing 7] Figure 2—figure supplement 2. Engineering class 1b NESs. (A) Sequences of class 1b NESs generated from PKI^NES and FMRP^NES. […] The reactions were extensively washed and visualized with SDS/PAGE and Coomassie staining. (B) Leptomycin B (LMB) sensitive nuclear export activity of FMRP-1b^NES was verified by expressing EYFP2-SV40^NLS-FMRP-1b^NES in HeLa cells and imaged with spinning disk confocal microscope (60X). DOI: http://dx.doi.org/10.7554/eLife.23961.014 [drawing 8]

wild type ^HsCRM1 = experiment: Pull-down binding assay with immobilized GST-NESs; parameters: species or system human; details: ~5 µg immobilized GST-NESs, 7.5 µM ^ScRanGTP, 2.5 µM CRM1, 200 µL
CRM1 = details: ref Xu et al., 2012c, 2015; cited from earlier work
Description: What then are CRM1 groove features that selectively recognize the key NES features? Arrangement of hydrophobic pockets in the groove likely selects NESs with suitably placed Φ residues. Groove shape, tapering and most constricted at ^ScCRM1 Lys579 (^HsCRM1 Lys568), likely selects for NES helices that transition to strands or NES helices that end (Figure 3C). Is groove-constricting ^HsCRM1 Lys568 perhaps key for differentiating active from false positive NES sequences? We tested mutants ^HsCRM1(K568A) and ^HsCRM1(K568M) for interactions with three previously identified false positive NESs that ...

[1] = MBP-NES competes with FITC-PKI^NES for CRM1, excess RanGTP, triplicate, brackets = 68.3% confidence interval

For “MBP-CDC7^NES: MBP fusion of the NES of cell division cycle 7-related protein kinase”, the Kd (^HsCRM1; [1]) was 20 µM.

With YLKEVDQLRALER [MBP-FMRP-1b^NES mutant] the “CRM1 binding in words, differential bleaching competition” value (^HsCRM1; excess RanGTP) was “does not bind CRM1” and the Kd (^HsCRM1; triplicate competition titrations, brackets = 68.3% confidence level, U = undetermined, NB = not binding) was 1700 µM.

For “MBP-X11L2^NES: MBP fusion of the NES from beta-amyloid binding protein X11L2”, the Kd (^HsCRM1; [1]) was 1.5 µM.

In the case of “GGS-YLKEVDQLRALERLQID [MBP-FMRP-1b^NES, Engineered class 1b NES, an alanine added to FMRP^NES; tested as MBP fusion and as EYFP2-SV40^NLS reporter]”, the Kd (^HsCRM1; [1]) is reported as 3 µM and the “Leptomycin B (LMB) sensitive nuclear export activity” value (HeLa cells) is reported as “verified”.

For “MBP-Pax^NES: MBP fusion of the NES of Paxillin”, the Kd (^HsCRM1; [1]) was 0.67 µM.

In the case of “173KTLSEVEESISTLISQPN^190 [COMMD1^pep, False positive NES peptide from COMM domain-containing protein 1, class 3 match; GST fusion in pull-down]”, the “Pull-down binding to wild type ^HsCRM1” value (wild type ^HsCRM1) is listed as “does not bind” and the “CRM1 binding of false positive NESs that match NES consensus” value (CRM1) is listed as “do not bind CRM1”.

In the case of “MBP-SMAD4^NES: MBP fusion of the NES of Mothers against decapentaplegic homolog 4 protein”, the Kd (^HsCRM1; [1]) is reported as 4.6 µM.

“MBP-HDAC5^NES: MBP fusion of the NES of Histone deacetylase 5” gave a Kd (^HsCRM1; [1]) of 1.6 µM.

“MBP-FMRP^NES: MBP fusion of the class 2 NES of fragile X mental retardation protein” gave a Kd (^HsCRM1; [1]) of 2 µM.
